Results on three substances are retold here after publication PMC5830531.

Holding throughout (experiment): EMSA
The subject of data set [1] is MBP-A3H m1 monomer (Homo sapiens (haplotype II)). The following applies: EMSA: 50 mM HEPES pH 7.5, 250 mM NaCl, 1 mM DTT, 2.5 mM EDTA, 10% glycerol, on ice 10 min, protein up to 8 uM, 8% native PAGE. A general note: In EMSA bound probe runs differently from free probe, usually more slowly.
The subject of data set [2] is MBP-A3H m1+W115A/C116S monomer (Homo sapiens (haplotype II)). To be noted: EMSA: 50 mM HEPES pH 7.5, 250 mM NaCl, 1 mM DTT, 2.5 mM EDTA, 10% glycerol, on ice 10 min, protein up to 8 uM, 8% native PAGE.
Data set [3] relates to MBP-A3H m1+H114A monomer (Homo sapiens (haplotype II)). The following applies: EMSA: 50 mM HEPES pH 7.5, 250 mM NaCl, 1 mM DTT, 2.5 mM EDTA, 10% glycerol; on ice 10 min; protein up to 8 uM; 1 nM RNA or 10 nM DNA; 8% native PAGE; n=3 ….
Setting [4] is: smeared bands, approximate, 1 nM RNA or 10 nM …, n=3, Table.

For 8 nt ssDNA, the Kd in data set [1] (setting [4]) is 983 nM; in data set [2] (setting [4]), 2960 nM.

For the substance 13 nt ssDNA, the Kd was 272 nM in data set [1] (approximate estimate, monomer assigned from the monomer comparison, 1 nM RNA or 10 nM DNA, n=3 …) and 497 nM in data set [2] (approximate estimate, 1 nM RNA or 10 nM DNA, n=3 …).

In the case of 50 nt ssRNA, the dissociation constant (Kd) in data set [1] (1 nM RNA or 10 nM DNA, n=3 …) turned out to be 8 nM; in data set [3], 34 nM; in data set [2] (1 nM RNA or 10 nM DNA, n=3 …), 12 nM.

The term Kd denotes a measure of binding affinity in units of concentration.
